Results as given in publication PMC6220978, “Induced conformational changes activate the peptidoglycan synthase PBP1B” (Molecular Microbiology, 2018).

Molecular target: T1, PBP1B Q318A (E. coli, UniProt P02919 46-844, Q318A)
T1 sequence (looked up): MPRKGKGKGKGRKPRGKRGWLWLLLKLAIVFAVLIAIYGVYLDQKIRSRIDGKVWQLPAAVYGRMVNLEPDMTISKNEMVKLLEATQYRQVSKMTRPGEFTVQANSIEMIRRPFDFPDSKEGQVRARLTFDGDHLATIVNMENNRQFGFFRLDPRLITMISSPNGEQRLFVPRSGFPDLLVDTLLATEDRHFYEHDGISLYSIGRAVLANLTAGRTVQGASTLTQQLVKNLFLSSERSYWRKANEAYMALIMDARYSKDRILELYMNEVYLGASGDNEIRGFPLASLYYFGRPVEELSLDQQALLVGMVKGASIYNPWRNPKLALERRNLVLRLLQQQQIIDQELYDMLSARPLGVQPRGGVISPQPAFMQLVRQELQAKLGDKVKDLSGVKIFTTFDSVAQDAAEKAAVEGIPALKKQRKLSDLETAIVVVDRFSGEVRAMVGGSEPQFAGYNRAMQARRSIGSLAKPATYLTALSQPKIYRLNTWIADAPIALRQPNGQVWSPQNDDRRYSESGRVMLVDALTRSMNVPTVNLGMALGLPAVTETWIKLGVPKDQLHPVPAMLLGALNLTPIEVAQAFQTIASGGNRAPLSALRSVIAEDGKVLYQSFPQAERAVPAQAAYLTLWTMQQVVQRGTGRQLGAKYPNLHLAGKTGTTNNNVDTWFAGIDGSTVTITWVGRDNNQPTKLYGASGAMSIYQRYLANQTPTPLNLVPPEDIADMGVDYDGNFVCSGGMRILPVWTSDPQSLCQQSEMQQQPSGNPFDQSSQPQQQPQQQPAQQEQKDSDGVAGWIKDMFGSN
Experiment: cell-based or functional assay

B1: LpoB (natural protein, E. coli)
chain: VGQREPAPVEEVKPAPEQPAEPQQPVPTVPSVPTIPQQPGPIEHEDQTAPPAPHIRHYDWNGAMQPMVSKMLGADGVTAGSVLLVDSVNNRTNGSLNAAEATETLRNALANNGKFTLVSAQQLSMAKQQLGLSPQDSLGTRSKAIGIARNVGAHYVLYSSASGNVNAPTLQMQLMLVQTGEIIWSGKGAVSQQ
notes: LpoB, E. coli; also called lipoprotein LpoB; source: E. coli BL21(DE3), purified (HisTrap, Superdex 200), as in Egan et al. 2014
fold activation of the GTase rate of PBP1B Q318A by LpoB: ~25 fold
